Data as given in patent US20240350583A1, “COMPOSITION FOR PREVENTING OR TREATING FIBROTIC DISEASES, COMPRISING HAPLN1” (Chung Ang University Industry Academic Cooperation …, priority 2021, published 2024).

Tests used:
[1] = test system: human hepatic stellate cell (HHSC); experiment: TGFβ1-induced fibrosis of human hepatic stellate cells, αSMA western blot; type: cell-based
Experimental: (1) Human hepatic stellate cells (primary human hepatic stellate cell (HHSC; iXCells Biotechnologies, 10HU-210) were seeded (1.5×10^5 cells/well) in a 6-well plate according to the experimental scheme in FIG. 2A and incubated in stellate cell growth medium (iXCells Biotechnologies, MD-0014) in an incubator at 37° C. 5% CO2 for 24 hours.
(2) After replacing with serum-free DMEM medium, the medium was incubated for 24 hours.
(3) The plates were then treated with TGF31 (2 ng/ml) to induce fibrosis and incubated for 24 hours.
(4) Afterwards, each well of the plate was then treated with the composition of the present disclosure at rhHAPLN1 protein content of 0, 3, 10, 30, and 100 ng/ml and pirfenidone 100 μg/mL and 200 μg/mL, respectively, and incubated for 24 hours.
(5) Each sample was then treated with cell lysis buffer and harvested.
(6) Western blotting was performed on the samples. Here, anti-αSMA Ab (Abcam, ab7817), anti-GAPDH Ab (Santa Cruz, sc-32233) were used as primary antibodies and HRP-conjugated anti-mouse IgG Ab (CST, #7076) as secondary antibodies to confirm the protein expression levels of αSMA and GAPDH.

[2] = test system: MyOF system (differentiated lung myofibroblasts); experiment: BioMAP Fibrosis panel, MyoF system, ELISA; type: cell-based
Description: The anti-fibrotic action effect of the composition of the present disclosure on pulmonary fibrosis and kidney fibrosis was verified by examining the expression level of various fibrosis markers using the BioMAP Fibrosis Panel (provided by Eurofins discovery).
BioMAP Fibrosis panel consists of three models, SAEMyoF system (co-culturing small airway epithelial cells and adult fibroblasts), REMyOF system (co-culture of renal proximal tubule epithelial cells and adult fibroblasts), and MyOF system (differentiated lung myofibroblasts). Here, the SAEMyoF system represents interstitial lung diseases (IDL), including pulmonary fibrotic diseases such as idiopathic pulmonary fibrosis (IPF), and the REMyOF system represents kidney fibrosis disease, which is associated with end-stage renal failure. However, experiments were conducted to confirm the effect of the MyoF system only on myofibroblasts.
(1) Each primary cell was used by pooling cells from multiple donors (n=3 to 6), and cells were first cultured in 96-well plates to confluence before adding a peripheral blood mononuclear cell (PBMC).
(2) Subsequently, the cells were then each treated with the composition of the present disclosure (rhHAPLN1 protein content of 0, 3.7, 11, and 33 ng/ml) at different concentrations and cultured for 1 hour. […]
Each quantitative value was compared as a relative fold change compared to the vehicle control. […]

[3] = test system: bleomycin-induced pulmonary fibrosis (BIPF); experiment: Bleomycin-induced pulmonary fibrosis mouse model, treatment (inhalation from day 8); type: in vivo
Experimental: An experiment was conducted to verify the effect of ameliorating bleomycin-induced pulmonary fibrosis (BIPF) already developed by repeatedly administering the composition of the present disclosure by inhalation to animals with pulmonary fibrosis. Here, experimental results are presented that are basically similar to Example 12, but bleomycin-induced pulmonary fibrosis (BIPF) was sufficiently generated 7 days after bleomycin treatment, and that the composition of the present disclosure has the ability to treat fibrotic diseases.
To establish a bleomycin-induced pulmonary fibrosis (PF) model, 8-week to 10-week-old female C57BL/6N mice were used, and divided into 4 groups (Normal, PBS Control, 0.00075% (w/w) rhHAPLN1, 0.0015% (w/w) rhHAPLN1), with 4 mice per group, and the IPF disease induction method was referred to the paper by Liu et al. (Methods in Molecular Biology 2017, DOI: 10.1007/978-1-4939-7113-8_2) (see FIG. 13A). […]
Starting 8 days after bleomycin administration, the control was a mixture of 50 μl of a stock solution consisting of 20 mM Tris-HCl, 0.5 M NaCl, pH 8.0, 50% glycerol and 10 ml PBS (1×, pH 7.4, Gibco Co.) solution. […] The weight of each experimental animal was measured every 2 days to confirm that there was no change in weight, and a mass dosing system and aerosol chamber (Data Science International Co., Ltd.) were used to generate the fog. […]
Next, three tissue slides were prepared per mouse by cutting the middle portion of the left large lobe of the mouse, and three sections were photographed randomly on one slide, and then, for a total of nine sections, the stained darker part was distinguished from the unstained white part, and the area of the stained darker part was measured using Image J software, and each figure obtained was averaged to obtain an average value per mouse. […]

B1: rhHAPLN1: recombinant human HAPLN1 protein of SEQ ID NO: 1 produced in CHO-K1 cells, stabilized in acetic acid buffer, sucrose, PS80, pH 5.0 (protein, listed as Homo sapiens)
chain: MKSLLLLVLISICWADHLSDNYTLDHDRAIHIQAENGPHLLVEAEQAKVFSHRGGNVTLPCKFYRDPTAFGSGIHKIRIKWTKLTSDYLKEVDVFVSMGYHKKTYGGYQGRVFLKGGSDSDASLVITDLTLEDYGRYKCEVIEGLEDDTVVVALDLQGVVFPYFPRLGRYNLNFHEAQQACLDQDAVIASFDQLYDAWRGGLDWCNAGWLSDGSVQYPITKPREPCGGQNTVPGVRNYGFWDKDKSRYDVFCFTSNFNGRFYYLIHPTKLTYDEAVQACLNDGAQIAKVGQIFAAWKILGYDRCDAGWLADGSVRYPISRPRRRCSPTEAAVRFVGFPDKKHKLYGVYCFRAYN
expression level of αSMA compared to composition that does not include rhHAPLN1 protein (FIG. 2C) ([1]; TGFβ1 (2 ng/ml) 24 h, then rhHAPLN1 3, 10, 30, 100 ng/ml 24 h): significantly lower | anti-fibrotic action from αSMA western blot band, compared to pirfenidone (FIG. 2B) ([1]; all rhHAPLN1 contents, pirfenidone 100 and 200 μg/mL): much better anti-fibrotic action compared to pirfenidone | anti-fibrotic efficacy compared to pirfenidone at 100 μg/mL and 200 μg/mL ([1]; rhHAPLN1 3 ng/ml, αSMA): much higher anti-fibrotic efficacy | rhHAPLN1 protein content showing the most excellent anti-fibrotic efficacy ([1]; αSMA): 3 ng/mL | expression level of collagen I (MyoF system, FIG. 11C), fold change compared to vehicle control ([2]; in proportion to rhHAPLN1 content (3.7, 11, 33 ng/ml)): ≤ 0.8 fold | expression level of collagen IV, fold change compared to vehicle control (FIG. 11C) ([2]; rhHAPLN1 33 ng/ml): 0.7 fold | H&E lung tissue form (FIG. 13B) ([3]; rhHAPLN1 0.0015% (w/w)): quite similar to that of the normal group | reduction of average area of dark (fibrotic) lung area compared to pulmonary fibrosis without treatment (FIG. 13C) ([3]; rhHAPLN1 0.0015% (w/w), nebulized 1 hour once daily for 14 days from 8 days after bleomycin): 51% | Ashcroft score evaluation (FIG. 13E) ([3]; rhHAPLN1 nebulized from 8 days after bleomycin): excellent therapeutic effect
